Data from the supplement of paper PMC10724198.

Key:
Saccharomyces cerevisiae [1] = assay: protein stability index of tFT-peptide fusion in deletion strain of DAS1 (PSI (0-1 scale)); higher = more stable (slower turnover)
Experimental: (§1)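 MPS profiling in S. cerevisiae of two library types built from selected 12-aa C-degron peptides (IN1, IN2, LN1, LN3, VN2, R1-R5, W1-W3, Atg1 and Rpa12 C-termini): saturation mutagenesis libraries and C-terminal +1 capping libraries (13 aa). Each peptide is fused to the C-terminus of a sfGFP-mCherry timer, after a GGGS linker. Cells are FACS-sorted into 8 mCherry/sfGFP bins and sequenced. PSI runs from 0 (unstable) to 1 (stable), measured once in wild type and in the das1Δ or doa10Δ background.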

Saccharomyces cerevisiae [2] = assay: protein stability index of tFT-peptide fusion in wild type (PSI (0-1 scale)); higher = more stable (slower turnover); details: genetic background: wild type
Experimental: as §1
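For protein stability index of tFT-peptide fusion in deletion strain of DAS1 in this document: PSI is a weighted mean of each variant's read distribution over the sorted stability bins, computed only for variants having over 10 reads in total.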
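For protein stability index of tFT-peptide fusion in wild type in this document: PSI derived as read-weighted mean over the 8 sorting bins, only variants exceeding 10 total reads kept, mCherry placed adjacent to the peptide and sfGFP distal.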

Sequence	protein stability index (Saccharomyces cerevisiae [1])	protein stability index (Saccharomyces cerevisiae [2])
LKELRQKMNHQN	0.673	0.217
LKIGRQKMNHQN	0.674	0.414
LKILGQKMNHQN	0.678	0.365
LKILRHKMNHQN	0.693	0.194
LKILRMKMNHQN	0.71	0.243
LKILRQKFNHQN	0.668	0.202
LKILRQKMDHQN	0.673	0.613
LKILRQKMFHQN	0.654	0.206
LKILRQKMNHKN	0.678	0.484
LKILRQKMNHLN	0.674	0.192
LKILRQKMNHMN	0.605	0.191
LKILRQKMNHQD	0.667	0.622
LKILRQKMNHQG	0.656	0.215
LKILRQKMNHTN	0.672	0.197
LKILRQKMQHQN	0.716	0.238
LKILRQKVNHQN	0.661	0.282
LKILVQKMNHQN	0.662	0.218
LKIQRQKMNHQN	0.676	0.23
LKPLRQKMNHQN	0.682	0.172
LKVYLSCVACIN	0.14	0.0444
LKYLRQKMNHQN	0.629	0.17
LRILRQKMNHQN	0.666	0.148
LVAYLSCVACIN	0.156	0.0244

Sequence	protein stability index (Saccharomyces cerevisiae [1])	protein stability index (Saccharomyces cerevisiae [2])
LVGYLSCVACIN	0.342	0.0848
LVVKLSCVACIN	0.0586	0.0127
LVVPLSCVACIN	0.359	0.254
LVVYLSCTACIN	0.0401	0.0192
LVVYLSCVACCN	0.0342	0.0106
LVVYLSCVACHN	0.0392	0.0435
LVVYLSCVACIG	0.0316	0.0178
LVVYLSCVACINH	0.0365	0.0236
LVVYLSCVACINM	0.206	0.183
LVVYLSCVACINV	0.0328	0.02
LVVYLSCVACMN	0.0497	0.0204
LVVYLSCVACNN	0.16	0.127
LVVYLSCVACSN	0.0313	0.0158
LVVYLSCVAYIN	0.0273	0.0128
LVVYLSCVDCIN	0.417	0.402
LVVYLSCVECIN	0.262	0.125
LVVYLSCVFCIN	0.167	0.0477
LVVYLSCVICIN	0.112	0.0482
LVVYLSHVACIN	0.411	0.148
LVVYLSNVACIN	0.5	0.344
LVVYLSRVACIN	0.356	0.087
LVVYRSCVACIN	0.333	0.133
LWVYLSCVACIN	0.0209	0.0149

Sequence	protein stability index (Saccharomyces cerevisiae [1])	protein stability index (Saccharomyces cerevisiae [2])
LYILRQKMNHQN	0.666	0.135
PDKKNHLIKLLN	0.768	0.09
PDKRAHLIKLLN	0.617	0.112
PDKRNHKIKLLN	0.599	0.086
PDKRNHLIALLN	0.634	0.216
PDKRNHLIKELN	0.597	0.355
PDKRNHLIKLIN	0.612	0.115
PDKRNHLIKLLI	0.594	0.206
PDKRNHLIKLPN	0.587	0.592
PDKRNHLIKLQN	0.737	0.453
PDKRNHLIKLVN	0.645	0.158
PDKRNHLIKPLN	0.586	0.607
PDKRNHLIKRLN	0.602	0.104
PDKRNHLIMLLN	0.624	0.193
PDKRNHLIPLLN	0.585	0.405
PDKRNHLIQLLN	0.616	0.102
PDKRNHLITLLN	0.622	0.315
PDKRNHLQKLLN	0.582	0.168
PDKRNHVIKLLN	0.605	0.0941
PDKRNHWIKLLN	0.567	0.196
PDKRNVLIKLLN	0.589	0.125
PDKRNWLIKLLN	0.675	0.0714
PDKRSHLIKLLN	0.631	0.0872

Sequence	protein stability index (Saccharomyces cerevisiae [1])	protein stability index (Saccharomyces cerevisiae [2])
PDKWNHLIKLLN	0.576	0.0782
PDLRNHLIKLLN	0.614	0.13
PSGAASFWRVVG	0.668	0.16
PSLAASFERVVG	0.675	0.655
PSLAASFHRVVG	0.649	0.687
PSLAASFIRVVG	0.435	0.46
PSLAASFVRVVG	0.514	0.528
PSLAASFWGVVG	0.715	0.697
PSLAASFWLVVG	0.611	0.38
PSLAASFWRAVG	0.699	0.158
PSLAASFWREVG	0.705	0.258
PSLAASFWRVCG	0.659	0.163
PSLAASFWRVLG	0.68	0.164
PSLAASFWRVPG	0.689	0.677
PSLAASFWRVVGK	0.689	0.666
PSLAASFWRVVGT	0.698	0.674
PSLAASFWRVVP	0.688	0.539
PSLAATFWRVVG	0.674	0.135
PSLACSFWRVVG	0.675	0.139
PSLAYSFWRVVG	0.693	0.134
